± gives the half width of the 95% confidence interval.
Test: folding stability dG unfold from chymotrypsin proteolysis; higher = more stable
Procedure, shortened: (§1)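 Mini-proteins designed to be under 80 residues and free of cysteine were carried in a PA-tagged cDNA display construct and digested with trypsin and with chymotrypsin. Each protease was applied at 11 threefold-diluted concentrations, alongside a no-protease condition, before sequencing. K50 came from Bayesian fitting of the sequencing counts, and unfolding free energy was obtained by comparing it with a sequence-predicted unfolded-state K50 and a shared folded-state K50, for each protease separately or for both together. Designs were retained only if their AlphaFold2 dimer inter-PAE exceeded 15.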

Sequence | folding stability dG unfold [kcal/mol]
SAGGSAGGSAGGSMKIVEVELIEYDEETKEFVYVFRVRLEDGSERLIVITPDGEMRVVPSAGGSAGGSAGGS [r4_35_TrROS_Hall] | 3.481 ± 0.031
SAGGSAGGKTYIVKIVVKNKNGEELELTLEVETEEEAKEAAEELAKKLEEAGYEIVKVEIKKLPSAGGSAGG [r6_869_TrROS_Hall] | 4.11 ± 0.14
SAGGSAGGSAGGAAPNTFKVRLELKVKVEKRTYKNEDGSTYEVDSISVELKIEIEPLPDSAGGSAGGSAGGS [r10_1212_TrROS_Hall] | 5.69 ± 0.2
SAGGSAGGMVVERKDMDPEEAVEDTKKRIKEETGWEVTEITVTEFPEEPRLVVTIKVKKPPEKSSAGGSAGG [r6_462_JUSTAS] | 0.71 ± 0.016
SAGGSAGGSAGGMVIERPLPNGEPLLVELGRPASAPARVTVPNPGRPLGTITSLEELEERSAGGSAGGSAGG [r7_72_TrMRF] | 0.565 ± 0.03
SAGGSAGIEERLKKLAEELGLEVKVTKVEVKVDGKEEVVVEVEVEPPPPPVEVKELSEEERKKAEESAGGSA [r15_256_TrROS_Hall] | 0.99 ± 0.19
SAGGSAGGSAGGSKPEVIKLKVKKIKVKKKKYDKNGKLVEEEEKEITVETTVFVPKEDLSAGGSAGGSAGGS [r4_425_TrROS_Hall] | 0.336 ± 0.14
SAGGIRIKPGQILVIDIERPTGNERKIIIPMDDPEEVIEQLGFPPENFRIKDIEVVPMPPEQAKDFLESAGG [r13_850_TrROS] | 0.585 ± 0.1
SAGGSAIPGMPIKEIARALQDKFPPGKPPQIKIRNKNGETKTFEPNKTIDDIPMDGVVEIEIEFRPSAGGSA [r15_50_TrROS] | 0.0124 ± 0.075
SAGGDKNAKPIKPITISFTLEDGSKKTITATFYKDAVIVEITYINPKTGKPFTKTFVFKKKGVKLLLSAGGS [r16_419_TrMRF] | 3.19 ± 0.094
SAGGNIKIQVENHEDGWYMKIWVPGNGKEQEYPFEPGDTIDTLPPGAEPVKIEWFHMNDNPQEFELDSAGGS [r8_487_TrROS] | 0.45 ± 0.23

Test: folding stability dG unfold from trypsin proteolysis; higher = more stable
Procedure, shortened: as §1

Sequence | folding stability dG unfold [kcal/mol]
SPLELPSDEEITVNAEVLILPYNPETGEIEDEIPIPLPVKIKVKKDGSVEIEIDIPDSIPENVPIVLLLKSA [r9_90_TrMRF] | 1.29 ± 0.062
SAMLKLEITLPDGTVVEVEIPLERPVPPAGEEEALAAAEAVREAVAAALGLEDAEVTMEVEEVSPEELLSAG [r14_378_JUSTAS] | 1.65 ± 0.12
SAGGSAGGSAGGSMKNVPVTVEGSSSVVPLPDGSPVTVTELTTTTLGENGEVSTSTTVVSSAGGSAGGSAGG [r11_817_JUSTAS] | -0.614 ± 0.07
SMKTLIVEGMTPEEIRALAEEAAKKGEEVEIEIVVKDNEEIKEALEEAGVEVEEVEDPETKEKVLKVTVKSA [r9_759_TrROS_Hall] | 0.254 ± 0.044
SAMKFKKGAKIEIEVEKVEEKEIDGKTVAVYRMKIKIEVDGKKYEIEVEIYYDKETKEWKIVKVEIKEVSAG [r14_293_TrROS_Hall] | 3.55 ± 0.33
SANDAMRKMMENMSPEDMMEMVRPPVPPPPVVTIRVPIEDLPKFLQWLSEEFGVEIEREDGYLYITVTASAG [r14_7_TrROS] | 0.623 ± 0.084
SKKVTLPIRFPWNGWEIEITAEELAEKKGLDPEDLTIHVVMPGPGWMYTIKIDPDGIEIEPIGPVPPNDMSA [r9_819_TrROS] | 1.45 ± 0.029
SAGGSAGGSKNVKTVTIPFNNMSPSKFIEQIKNHPVDAIEIEMPDPWYRRFLNWLKDEGIKVISAGGSAGGS [r12_610_TrROS] | 1.27 ± 0.053
SAGGEIEIVVETPEDLEKAKELAEELAKALEEAGLEIEEVKVELVEETVVNEDGEEKKRYVLKITFPSAGGS [r16_591_TrROS_Hall] | 2.46 ± 0.1
SAGGSAGGSAGEEKEYRIVVPFDSDDPEAFVRAVFDGIPPDVPIKAIDFNPELGYGVVVASAGGSAGGSAGG [r11_698_TrMRF] | 0.364 ± 0.091
SATKEIEIEVNGRKLRIRIERKEDGSIKITIELPGMSAEEVKEALRKLLPPDAKITVDEITVTEYREEPSAG [r14_370_TrROS_Hall] | 3.14 ± 0.17
SAGGSAGGMTAVEVKEETVPITLTSSFFPGGVPVPGAAVSTITITTTTTIEPPTGKTVKVTVAGSAGGSAGG [r6_424_JUSTAS] | -0.318 ± 0.037
SGSFKLLKVEEHPDNPSITAVLTFPDGSTATLRFRPDGSWTGYVESTGKPFTAVSGENELKLFVPEELTLSA [r9_233_TrMRF] | 0.67 ± 0.059
SAGGSAGGMKVKIKLGPGEEVEIEVVEDKETNKLYFKIVNKKTKKVYVFETLEEAKNMSLEELLSAGGSAGG [r6_739_TrROS_Hall] | 1.78 ± 0.065
SAGGSAGGGMPISISITVTLSDGTVLEFTVTVPENAPDPASVAAALAAEIKAAHPDVAVTFTPASAGGSAGG [r6_132_JUSTAS] | 0.849 ± 0.054
SAGSYKLVVKAKAPKGPARIRVFVRLPGGEEKPVAEAEVGSGEVADIEITFPSGKPIDPKNIRVEIVPPSAG [r5_287_TrMRF] | 1.88 ± 0.03
SADYVLYLVTLKVRRKVGDKEYELEVPLLILAPEDELDESEIEAIAREAAAELGAEVEEVKIERLPLNASAG [r14_278_TrMRF] | 3.94 ± 0.11
SAGGSAGGPNIRIIIKPDPENGTLKIWFVHPEPGRIQKYEFNMNGKWKIKEPVGPMKPGDPGLLSAGGSAGG [r6_149_TrROS] | 0.668 ± 0.16
SAGGSAMSKDVLFENGARITKFFPGKNYVIIETSPENPELLKELGITVIKEGPNRIIVPAKDFLDESAGGSA [r15_984_TrMRF] | -1.28 ± 0.74
PETVTLTVEIEIEVRGPDGKPLTPEQVEELAKALAEELAAELGLEVEVTVTVEPVGPDGKYRITVTVTIRPS [r1_231_TrROS_Hall] | 4.45 ± 0.34
SAGGSAGGSAGGLPEGWVLKTETKTVKLKVKVKVDGKEYEFEVEVKVTRIELVPKEELESAGGSAGGSAGGS [r10_300_TrROS_Hall] | 3.04 ± 0.23
